For the experiment, the target named is T1, mouse TIM-3 expressed on cells (mouse, UniProt Q8VIM0 20-281).
T1 construct: whole, on cells; also called mTIM-3
Put plainly: flow cytometry on mouse primary glial cells (FIG. 7 legend). Here is the method: FACS analysis was performed to determine whether the selected antibody, hTIM-3_NCC1, specifically binds to mouse TIM-3 as well as human TIM-3.
Specifically, 0.5 μg of hTIM-3_NCC1 antibody was reacted to mouse primary glial cells for 30 minutes, and then stained with a secondary antibody (APC-human IgG Fc; Biolegend, cat #409305). In addition, mouse CD11b⁺ cells overexpressing mouse TIM-3 (3×10⁵ cells) were separated using a-BV421-conjugated anti-CD11b antibody (BD, cat #562605) and then 0.5 μg of hTIM-3_NCC1 antibody and PE-conjugated anti-mouse were reacted for 30 minutes. These cells were surface-stained with a secondary antibody (APC-Human IgG Fc) and then measured by flow cytometry.
Background: In flow cytometry, cells or beads pass a laser one at a time.

T1 sequence (Q8VIM0 20-281): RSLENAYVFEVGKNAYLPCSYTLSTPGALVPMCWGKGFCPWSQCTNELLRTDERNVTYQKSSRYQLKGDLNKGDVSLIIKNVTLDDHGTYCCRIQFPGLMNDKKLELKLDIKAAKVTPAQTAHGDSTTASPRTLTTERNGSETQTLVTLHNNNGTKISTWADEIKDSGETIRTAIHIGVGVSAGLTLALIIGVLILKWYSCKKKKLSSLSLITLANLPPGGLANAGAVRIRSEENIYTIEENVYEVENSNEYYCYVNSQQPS

B1: hTIM-3_NCC1 (Fc fusion)
scFv: EVQLVESGGGLVQPGGSLRLSCAASGSIFSNGYMTWYRQAPGKGLELVSSINSRGVTNYADSVKGRFTISRDNSKNTLYLQMNSLRAEDTAVYYCAALLPHEIRKYWGQGTQVTVSSGGGSHGGGSGGGSVDDIQMTQSPDSLAVSLGERATINCKSSQSVFYNSNNKNYLGWYQKKPGQPPKLLIFWASTRESGVPDRFSGSGSGTDFTLTISSLQAEDVAVYYCQQYYSTPRTLGGGTKVDIKR
notes: Human scFv from a naive phage library, tested as scFv-hIgG (hIgG1) and detected with anti-human IgG secondary antibodies; also called scFv-TIM3 #4; ScFV-TIM3 #4; not shown: human IgG1 part (named only as 'hscFv-hIgG1')
As for B1, the binding result is listed as “binds”.

Values taken from patent US20230087570A1 (NATIONAL CANCER CENTER, published 2023).
